One assay has as its target T1, Biotinylated human IL-2 (Homo sapiens, UniProt P60568, biotin on the biotin acceptor peptide (BirA ligase)).
T1 construct: human interleukin-2; limits not restated for this construct (hIL-2 is residues 1-133 in the other constructs); the hexahistidine tag follows the BAP; also called biotinylated hIL-2; hIL-2 (immobilised); source: HEK 293F (gWiz vector), purified (Ni-NTA, SEC), biotinylated with BirA
As to the kind of experiment: BLI; biotinylated hIL-2, hIL-2Rα or hIL-2Rβ immobilised on streptavidin biosensors; serial dilutions of analyte in PBSA (PBS pH 7.2, 0.1% BSA); 300 s association, 600 s dissociation; equilibrium titration, first-order fit; F5111 IC LN25 and LN35 as SEC peak P3, LN15 as majority peak; cytokine/antibody complexes pre-formed at 1:1 molar ratio, 60 minutes at 37°C. The note with it: both partners purified.

For assay [1], the target named is T2, yeast-displayed mIL-2 (residues 1-149) (Mus musculus, UniProt P04351).
T2 construct: mouse interleukin-2, residues 1-149; a 3C protease site lies between Aga2 and the cytokine; also called mouse IL-2; not shown: Aga2 (yeast agglutinin protein), N-terminal, kept
The experiment in a line: flow cytometry on cells; yeast surface display: hIL-2 or mIL-2 displayed on yeast (Aga2 fusion); serial dilutions of recombinant F5111 antibody, 2 hours at room temperature in PBE (PBS, 0.1% BSA, 1 mM EDTA); detected with anti-human IgG Fc APC; first-order binding model. The note with it: one partner purified.

For assay [2], the target named is T3, yeast-displayed hIL-2 (residues 1-133) (human, UniProt P60568).
T3 construct: human interleukin-2, residues 1-133; a 3C protease site lies between Aga2 and the cytokine; not shown: Aga2 (yeast agglutinin protein), N-terminal, kept
Described as above. The note with it: one partner purified.

T1 sequence (P60568 21-153): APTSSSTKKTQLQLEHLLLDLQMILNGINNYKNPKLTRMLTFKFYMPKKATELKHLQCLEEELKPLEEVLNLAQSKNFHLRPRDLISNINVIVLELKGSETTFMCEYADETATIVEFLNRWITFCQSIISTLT
T3 sequence (P60568 21-153): as above
T2 sequence (P04351 21-169): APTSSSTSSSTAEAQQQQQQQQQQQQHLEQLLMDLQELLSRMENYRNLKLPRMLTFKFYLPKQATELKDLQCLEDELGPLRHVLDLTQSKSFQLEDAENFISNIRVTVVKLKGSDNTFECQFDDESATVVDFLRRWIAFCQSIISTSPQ

B1: F5111 antibody (antibody, V domains shown)
VH: QLQLQESGPGLVKPSQTLSLTCTVSGGSISSGGYYWSWIRQHPGKGLEWIGYIYYSGSTYYNPSLKSRVTISVDTSKNQFSLKLSSVTAADTAVYYCARTPTVTGDWFDPWGRGTLVTVSS
VL: NFMLTQPHSVSESPGKTVTISCTRSSGSIASNYVQWYQQRPGSSPTTVIYEDNQRPSGVPDRFSGSIDSSSNSASLTISGLKTEDEADYYCQSYDSSNVVFGGGTKLTVL
notes: human IgG1 constant heavy chain; human lambda constant chain; human IgG1 lambda; anti-hIL-2; also called F5111 Ab; F5111 human immunoglobulin G1 (IgG1) antibody; source: HEK 293F, transient co-transfection of HC and LC plasmids, purified (protein G, SEC); copies: 2 + 2
In the case of B1, the results for the binding result (in the assay with Biotinylated human IL-2; in assay [1]; in assay [2]) were “binds”, “no binding” and “binds”, respectively.

B2: F5111.2 Antibody (N297A) (antibody, V domains shown)
VH: QLQLQESGPGLVKPSQTLSLTCTVSGGSISSGGYYWSWIRQHPGKGLEWIGYIYKSGSAYYSPSLKSRVTISVDTSKNQFSLKLSSVTAADTAVYYCARTPTVTGDWFDPWGRGTLVTVSS
VL: NFMLTQPHSVSESPGKTVTISCTRSSGSIASNYVQWYQQRPGSSPTTVIYEDNQRPSGVPDRFSGSIDSSSNSASLTISGLKTEDEADYYCQTYDSIDVYFGGGTKLTVL
notes: as the VH of m21 (F5111.2; human IgG1 constant heavy chain with N297A in the Fc region; 297 is EU numbering); as the VL of m21 (F5111.2); human lambda constant chain; in all studies the F5111.2 antibody includes N297A; the isotype platform is stated for F5111 only; source: HEK 293F, transient co-transfection, purified (protein G, SEC); copies: 2 + 2
Turning to B2, in the assay with Biotinylated human IL-2, the binding result is given as “binds”.

Source of the values: publication PMC9631798, “Engineered human cytokine/antibody fusion proteins expand regulatory T cells and confer autoimmune disease protection” (Cell reports, 2022).
